This data set in a line: soluble on expression in E. coli; label from the status in PepcDB or PDB records.
Consider “MTTSGHACPVPAVNGHMTHYPATPYPLLFPPVIGGLSLPPLHGLHGHPPPSGCSTPSPATIETQSTSSEELVPSPPSPLPPPRVYKPCFVCQDKSSGYHYGVSACEGCKGFFRRSIQKNMIYTCHRDKNCVINKVTRNRCQYCRLQKCFEVGMSKESVRNDRNKKKKETSKQECTESYEMTAELDDLTEKIRKAHQETFPSLCQLGKYTTNSSADHRVRLDLGLWDKFSELATKCIIKIVEFAKRLPGFTGLTIADQITLLKAACLDILILRICTRYTPEQDTMTFSDGLTLNRTQMHNAGFGPLTDLVFTFANQLLPLEMDDTETGLLSAICLICGDRQDLEEPTKVDKLQEPLLEALKIYIRKRRPSKPHMFPKILMKITDLRSISAKGAERVITLKMEIPGSMPPLIQEMLENSEGHEPLTPSSSGNTAEHSPSISPSSVENSGVSQSPLVQ”, for which the “soluble on expression in E. coli” value is given as “soluble”.
“MTVANWQVRDLTLILRTGEMQSRLEQARTDFGALLPETVYFQPSAIRLGEFDDEYILTRQELVYVYLREDIARQCALRRHLPSNSSNSGIMATAIPPWLMDARRLNRVMQERCDQGGLVHYYQGPHTNQFFLAIMPSNCFVRFGTDVINNENYGFYARGGNYTEEGEDDDDEMDDEDETGGAETRDSQTGNLINYPIIALGSCHLSALEHHHHHH”: the “soluble on expression in E. coli” value is “not soluble”.
Regarding “MTVKIALLGFGTVASGVPFLLKENGGKINQSAHSDIKVAKVLVKDEDEKNRLLAAGNDFNFVTNVDDILSDQDITIVVELMGRIEPAKTFITRALEAGKHVVTANKDLLAVHGAELLEIAQANKVALYYEAAVAGGIPILRTLANSLASDKITRVLGVVNGTSNFMVTKMVEEGWSYDDALAEAQRLGFAESDPTNDVDGIDAAYKMVILSQFAFGMKIAFDDVAHKGIRNITPEDVAVAQELGYVVKLVGSIEETSSGIAAEVTPTFLPKAHPLASVNGVMNAVFVESIGIGESMYYGPGAGQKPTATSVVADIVRIVRRLNDGTIGKDFNEYSRDLVLANPEDVKANYYFSILALDSKGQVLKLAEIFNAQDISFKQILQDGKEGDKARVVIITHKINKAQLENVSAELKKVSEFDLLNTFKVLGE”, the “soluble on expression in E. coli” value is recorded as “soluble”.
Consider “MTVLMRLVASAYSIAQKAGMIVRRVIAEGDLGIVEKTCATDLQTKADRLAQMSICSSLARKFPKLTIIGEEDLPSEEVDQELIEDSQWEEILKQPCPSQYSAIKEEDLVVWVDPLDGTKEYTEGLLDNVTVLIGIAYEGKAIAGVINQPYYNYEAGPDAVLGRTIWGVLGLGAFGFQLKEVPAGKHIITTTRSHSNKLVTDCVAAMNPDAVLRVGGAGNKIIQLIEGKASAYVFASPGCKKWDTCAPEVILHAVGGKLTDIHGNVLQYHKDVKHMNSAGVLATLRNYDYYASRVPESIKNALVPAHHHHHH”, for which the “soluble on expression in E. coli” value is “soluble”.
The result for “MTVTDRIFQNVAELSVPNFFITVEFSVMGNEMPEHIESFVLEKYQAILHGANGRKFVYTEGGWRLFFTFFPTDKVVDERYALKNKVQMKFHK” reads “not soluble”; that for “MTWNTCSLCVTSELMNTLDEAKIPLQKAVNYHEQSQNRQFRITLITKCLENQENPEKSEVSVNFFVDLKELVPSCAYFEKFDGLSYVEFSTNCKSTWISAPESVAAPHEDCSHRFQSPIISRNFHAFLDSVCPSLYGIRPTPLTLSSIVPVLDMLSHFHSEPLLTNCERFLMSTNIGHLDGNHLIRLLDKGLCVSLDHRILGRILCICLMSPQAKMSDSSQELAGTIGSVFAQAFVALVYQKLMVKCEENSNLLIEKSKKSIFDGIFMENLKKKLIFHNFYEYSNISKSFRHIKPLEQESSLWPMAMRNLLIPGALGANSSSSKGSSEEKIGNKKRKRQECDHNEESFECILCFDQRCGKCKGEAAFCYKALDNFLYEIRLQLYPHTYRPHLDRDLLREERLSDYILRNQFQPLPDAN”, “not soluble”; that for “MTYPDLSRGAGPVAAGPQPTGLADLLERVLDKGLVIAGDIRVNLLDIELLTIKLRLVIASMETAQQAGIDWWTRDPWLKASESELLEENRRLREQLAQADTNGRKRIEGKESHD”, “not soluble”.
Consider “MTYPIPKPREKSRWPNLSQGSLPLALARYLPHKRLKVVLTQDAEQALRLQTAWRFFRPHDTAVFLPDWETLPYERFSPHQDLVSERLSALWQIKSGAADVLFVPVATAMQKLPPVPFLAGRTFWLKTGQTLDIGRLKSDLVDAGYNHVSHVVAAGEFAVRGGIVDLFPMGSEMPYRIDLFDDEIDSIKTFDTETQRTISPVSEIRLLPAHEFPTDSEAQKIFRSRFREEVDGNPNDAAVYKAVSNGHFGAGVEYYLPLFFENELETLFDYIGEDALFVSLDDVHAEANRFWSDVKSRYAMAQGDETYPPLLPQYLYLSADVFAGRLKNYGQVLPDVSGKEYTLPDLAVNRQADEPLQALKDFQTAFDGRILLCAESLGRRETMLGFLQQNGLKAKPVSDWQGFLSAHEPLMITVAPLAYGFKLGGLQSPNQQQPTPSPVGEGWGEGKAVAAQTEFSAAAINPLPSPLPQEREQSAAAVSDSLKAAAVSTESSLPLGTSNLHGQIRQQPAPSPVGEGWGEGKAVAAQTEFPASATNPLPSPLPQEREQSAAAVSDDLKTKSSLHPVANNLHGQIRQQPTPSPVGEGWGEGKAVAAQTEFSAAATNPLPSPLPQEREQSAAVVSDSLKAAAVSTESSLPPGKSNLHGQIQQQPAPSPVGEGWGEGKAVAAQSAIAVITESDLYQYVARSRIHNRRKKHAAVSDGLLRDLAEINIGDPVVHEEHGIGRYMGLVTMDLGGETNEMMLLEYAGEAQLYVPVSQLHLISRYSGQAHENIALHKLGSGAWNKAKRKAAEKARDTAAELLNLYAQRAAQSGHKFEINELDYQAFADGFGYEETEDQAAAIAAVIKDLTQAKPMDRLVCGDVGFGKTEVALRAAFVAVMGGKQVAVLAPTTLLVEQHAQNFADRFADFPVKVASLSRFNNSKATKAALEGMADGTVDIVIGTHKLVQDDIKFKNLGLVIIDEEHRFGVRQKEQLKRLRANVDILTMTATPIPRTLSMALEGLRDFSLITTAPSRRLAVKTFVKPFSEGSVREAVLRELKRGGQVFFLHNEVDTIENMRERLETLLPEARIGVAHGQLRERELEQVMRDFLQQRFNVLLCSTIIETGIDIPNANTIIINRADKFGLAQLHQLRGRVGRSHHQAYAYLLTPEYITKDAEKRLDAIAAADELGAGFTLAMQDLEIRGAGEILGEGQSGEMIQVGFTLYTEMLKQAVRDLKKGRQPDLDAPLGITTEIKLHSPALLPEDYCPDIHERLVLYKRLAVCETVQQINTIHEELVDRFGLPEQPVKTLIESHHLRLMAKELGIDAIDAAGEAVTVTFGKNNNVDPTEIILLIQNDKKYRLAGADKLRFTAEMENIEVRINTVKNVLKTLQNRCLPK”, for which the “soluble on expression in E. coli” value is listed as “not soluble”.
Turning to “MTYRVLDPNAQEGSPTEVLVRMYSHPQLRRLYADTEACYTTALADSITGEMRAAFERLRVSDPQMAIPRYVAFHVSGLQQSVVAVPDLVSVSIDKYIRPDYPVYLQFFSEYARQTMSPEYVVRDAVLGWICSERPLPRETVLTLRFQLEYWGDIYRLMKQVFPQASDEWLFGFTSDQLLWMKQNRKILLDNALKRGEMESSQPTVTDRYFKELPPDQLLPPEAPRLIGHWLGTNL”, the “soluble on expression in E. coli” value is given as “not soluble”.
Regarding “MTYTTAKAAEKIGISAHTLRFYDKEGLLPNIGRDEYGNRCFTDNDLQWLGLLQCLKNTGMSLKDIKRFAECTVIGDDTIEERLSLFENQIENVKCQIAELKRYLDLLEYKLAFYQKAKALGSVKAVNLPQIPETA”, the “soluble on expression in E. coli” value was “soluble”.
As for “MVAAPPAVGAAMPSLDFDTSVFNKEKVSLAGHEEYIVRGGRNLFPLLPEAFKGIKQIGVIGWGSQGPAQAQNLRDSLAEAKSDIVVKIGLRKGSKSFDEARAAGFTEESGTLGDIWETVSGSDLVLLLISDAAQADNYEKIFSHMKPNSILGLSHGFLLGHLQSAGLDFPKNISVIAVCPKGMGPSVRRLYVQGKEINGAGINSSFAVHQDVDGRATDVALGWSVALGSPFTFATTLEQEYKSDIFGERGILLGAVHGIVEALFRRYTEQGMDEEMAYKNTVEGITGIISKTISKKGMLEVYNSLTEEGKKEFNKAYSASFYPCMDILYECYEDVASGSEIRSVVLAGRRFYEKEGLPAFPMGNIDQTRMWKVGEKVRSTRPENDLGPLHPFTAGVYVALMMAQIEVLRKKGHSYSEIINESVIESVDSLNPFMHARGVAFMVDNCSTTARLGSRKWAPRFDYILTQQAFVTVDKDAPINQDLISNFMSDPVHGAIEVCAELRPTVDISVPANADFVRPELRQSS”, the “soluble on expression in E. coli” value is recorded as “soluble”.
For the sequence “MVAERNKDGRVVFDRGLRAQMMAIDGTWRRPCLIEDVSELGAKLTVEGTVEGLNLKEFFLLLSSTGLAYRRCELSWINGDQIGVTFLRLDRKKKRAAQVENA”, the “soluble on expression in E. coli” value is given as “not soluble”.
For the sequence “MVAEVCSMPTASTVKKPFDLRSKMGKWCHHRFPCCRGSGKSNMGTSGDHDDSFMKMLRSKMGKCCRHCFPCCRGSGTSNVGTSGDHENSFMKMLRSKMGKWCCHCFPCCRGSSKSNVGAWGDYDHSAFMEPRYHVRREDLDKLHRAAWWGKVPRKDLIVMLRDTDMNKRDKEKRTALHLASANGNSEVVQLLLDRRCQLNVLDNKKRTALIKAVQCQEDECVLMLLEHGADRNIPDEYGNTALHYAIYNEDKLMAKALLLYGADIESKNKV”, the “soluble on expression in E. coli” value was “not soluble”.
As to “MVCLESDTCQSSQLLNTSFKRGFFSNLYPMIKRTAVERCPLFSVETGFYLKAPGILFVIERKKKQMNHETIQKLQFTTILKEVQTRAIGEYSKERLAKMVPATRLETVQSRLTETTEARLIIDSGQHVPFMGLSQITRLLQQVKKGLILTPNELIEVADFLRSSQRIQKFFEKNQYQTPRLFSYSQHLADFRAIEEQIYTKIHNQKVATDASRQLRKIRRQINECQQEIETKVTKFLRNKNNQLYIQENMMVKKGEHYTVPIKASYKNKVSGTIIEQSNKGQTVFIEPVAISKLNEQLTLLKAEETAEEYQILAELTGLINEQERLVDQAVDTMTTLDIIFARGKYSREIGGITPKVNKEERLRIVQGKHPLLLEHAVPLTFSLGAEYRGLVITGANAGGKTVVLKTVGLLTVMTQFGLQIPAQAGTEIPVLDEIFVDIGDQQNLENALSTFSGHMKNIAEMLRNVKRHTLVLLDEIGSGTEPNEGAGLAIAIMETMYQKGALVVATTHYGEIKRFAQEHDDFVPAAMAFDRETLTPKYQLKIGEVGDSQALWIARKMKMEPQLIEKAAHYIQRKEYPTNRSLFKPLKAKETTFATFVEETHRYQKGDRVLLTETQQIGLVFTDEGEQEIQVFVNDKIENVPRRRLKLQAKAQDLYPQDYDLESLFTDFHERKKLKDIERGSKKAQKQLRKEAEKRAARRDK”, the “soluble on expression in E. coli” value was “not soluble”.
“MVDKAGNPLTVDDISQCHLPGFPILFTQNELLEILAKEIFKQQFLWKSVQDKDIKECNKEERIIKQIPLMPRCPDVLKGLFHCIEIRDERSPKHAIAYKSCLGKLEEMVKDQWDDWNRNQS”: the “soluble on expression in E. coli” value is on record as “not soluble”.
Turning to “MVDKNSLRKLMLLKRAELNDLEKSHLDQKINQKLMAFLITRPTIKNLALYIPIKNEVAFLDNFLDFLKLNKITSCFPSIVDQFNMKFIDQNNNEINPNDIDCFFIPLLAFNKANHRIGFGKGYYDRYLSLTSKKQLKIGIAYDFQYAEFTNDPWDYQLDLIICNGMAGDPLEHHHHHH”, the “soluble on expression in E. coli” value is listed as “soluble”.
As for “MVEEICHICNDKSTGKHYGAISCDGCKGFFRRSIRKRYHYQCRFEQNCDVTKNKRNACRACRLQKCVKAGMKSNAIQNERDAIGKRKKTTGAEKEDLIDQLVAAETLCQQLRSSVIKNTSSLAPYDCGKVKWNYEDARAATLDDIGKSIHQQLVLFIEWAKSLPQFSFLAQADQAALLKGGAASIIVLGVAYRSICLTVENTICLANDTLLPKEHATQVGDINCVVGRIIDEIVNPMRRLNMDLIEYVALKAILFFNPVVREINDQSPVENARYAFLRSLQRRCTDKALENMEDESMDCRSGKLLLLLPSLQAIAQQLVEDVQLARLFGLVNVDSLMEELILNDMKPSDPQILQTSLASPVNSSVKAEVELEE”, the “soluble on expression in E. coli” value is “soluble”.

For the origin of these results see the DeepSol protein solubility set.
